Changes are numbered by the printed parent chain.
B1: ttGGBP17C.20: affinity-tuning mutant, 17C background, SEQ ID NO: 78 (protein)
chain: MKQLNIGVAIYKFDDTCMTGVRNAMTAEAQGKAKLNMVDSQNSQPTQNDQVDLFITKKMNALAINPVDRTAAGTIIDKAKQANIPVVFFNREPLPEDMKKWDKVYYVGAKAEQSGILQGQIMADYWKAHPEADKNHDGVMQYVMLMGQPGHQDAILRTQYSIQTVKDAGIKVQELAKDYANWDRVTAHDKMAAWLSSFGDKIEAVFANNDDMALGAIEALKSAGYFTGNKYIPVVGVDATAPGIQAIKDGTLLGTVLSDAKNQAKATFNIAYELAQGITPTKDNIGYDITDGKYVWIPYKKITKDNISDAEQGGSHHHHHH
modifications: ttGGBP17C.20 (affinity-tuning mutant, 17C background (Table 6) with signal peptide replaced with M and GGSHHHHHH at C-terminus)
B2: ttGGBP17C.2: affinity-tuning mutant, 17C background, SEQ ID NO: 67 (protein)
chain: B1 chain with R69P, Q152P, S258N
modifications: ttGGBP17C.2 (affinity-tuning mutant, 17C background (Table 6) with signal peptide replaced with M and GGSHHHHHH at C-terminus)
B3: ttGGBP17C.3: affinity-tuning mutant, 17C background, SEQ ID NO: 68 (protein)
chain: B1 chain with T16N, D211A, S258N
modifications: ttGGBP17C.3 (affinity-tuning mutant, 17C background (Table 6) with signal peptide replaced with M and GGSHHHHHH at C-terminus)
B4: ttGGBP17C.4: affinity-tuning mutant, 17C background, SEQ ID NO: 69 (protein)
chain: B1 chain with H151Q, S258N
modifications: ttGGBP17C.4 (affinity-tuning mutant, 17C background (Table 6) with signal peptide replaced with M and GGSHHHHHH at C-terminus)
B5: ttGGBP17C.8: affinity-tuning mutant, 17C background, SEQ ID NO: 73 (protein)
chain: B1 chain with T16N, S258N
modifications: ttGGBP17C.8 (affinity-tuning mutant, 17C background (Table 6) with signal peptide replaced with M and GGSHHHHHH at C-terminus)
B6: ttGGBP17C.7: affinity-tuning mutant, 17C background, SEQ ID NO: 72 (protein)
chain: B1 chain with D15N, S258N
modifications: ttGGBP17C.7 (affinity-tuning mutant, 17C background (Table 6) with signal peptide replaced with M and GGSHHHHHH at C-terminus)
B7: ttGGBP17C.23: affinity-tuning mutant, 17C background, SEQ ID NO: 81 (protein)
chain: B1 chain with S258N, A260Q
modifications: ttGGBP17C.23 (affinity-tuning mutant, 17C background (Table 6) with signal peptide replaced with M and GGSHHHHHH at C-terminus)
B8: ttGGBP17C.22: affinity-tuning mutant, 17C background, SEQ ID NO: 80 (protein)
chain: B1 chain with S258N, A260N
modifications: ttGGBP17C.22 (affinity-tuning mutant, 17C background (Table 6) with signal peptide replaced with M and GGSHHHHHH at C-terminus)
B9: ttGGBP17C.26: affinity-tuning mutant, 17C background, SEQ ID NO: 84 (protein)
chain: B1 chain with S258N, A260W
modifications: ttGGBP17C.26 (affinity-tuning mutant, 17C background (Table 6) with signal peptide replaced with M and GGSHHHHHH at C-terminus)
B10: ttGGBP17C.6: affinity-tuning mutant, 17C background, SEQ ID NO: 71 (protein)
chain: B1 chain with D15E, S258N
modifications: ttGGBP17C.6 (affinity-tuning mutant, 17C background (Table 6) with signal peptide replaced with M and GGSHHHHHH at C-terminus)
B11: ttGGBP17C.24: affinity-tuning mutant, 17C background, SEQ ID NO: 82 (protein)
chain: B1 chain with S258N, A260R
modifications: ttGGBP17C.24 (affinity-tuning mutant, 17C background (Table 6) with signal peptide replaced with M and GGSHHHHHH at C-terminus)

Test: Glucose binding: isothermal fluorescence titrations, ratiometric (appKd) and monochromatic (trueKd) fits
Design: key to Glucose appKd / Glucose trueKd: nb, no bonding
Conditions: Badan conjugate; dichromatic ratiometry; room temperature
Excerpt: 2 For a single glucose-binding site, the fractional saturation is given by
[formula] where ^apoIλ2 and ^satIλ2 are the emission intensities of the monochromatic signal at wavelength λ2 of the ligand-free and ligand-bound protein, respectively.

With B1 the “Glucose appKd” value was “nb^e”.

Same assay, conditions: Badan conjugate; monochromatic titration curves; room temperature

In the case of B1, the “Glucose trueKd” value is reported as “nb^e”.

Same assay, conditions: read-out: Glucose appKd; Acrylodan conjugate; dichromatic ratiometry; room temperature

Compared with B2, B3 is 11-fold lower in Kd: 15 mM for the first, 1.4 mM for the second. The second binds more tightly here.

Going from B4 to B5, the Kd falls from 50 mM to 0.61 mM (82-fold).

For B6, the Kd was 0.3 mM.

Same assay, conditions: read-out: Glucose appKd; Badan conjugate; dichromatic ratiometry; room temperature

First: B2
Second: B3
The Kd of the first is 2.5-fold higher: 8.6 mM for the first, 3.4 mM for the second.

B4 and B7 are within 1.5-fold of each other in Kd: 16 mM for the first, 15 mM for the second.

First: B8
Second: B9
The Kd of the first is 13-fold higher: 12 mM for the first, 0.9 mM for the second.

Compared with B6, B10 is 4.4-fold higher in Kd: 0.75 mM for the first, 3.3 mM for the second.

Same assay, conditions: read-out: Glucose trueKd; Acrylodan conjugate; monochromatic titration curves; room temperature

First: B2
Second: B4
The Kd of the first is 2.7-fold lower: 18 mM for the first, 48 mM for the second.

First: B5
Second: B6
The Kd of the first is 2-fold higher: 0.6 mM for the first, 0.3 mM for the second.

Same assay, conditions: read-out: Glucose trueKd; Badan conjugate; monochromatic titration curves; room temperature

Going from B2 to B3, the Kd falls from 10.8 mM to 4.1 mM (2.6-fold).

Going from B4 to B7, the Kd rises from 6.4 mM to 18 mM (2.8-fold).

Going from B8 to B9, the Kd falls from 15 mM to 0.9 mM (17-fold). The second binds more tightly here.

Going from B6 to B10, the Kd rises from 1 mM to 3.6 mM (3.6-fold).

Test: Galactose binding: isothermal fluorescence titrations of conjugates
Design: key to Galactose trueKd: nb, no bonding
Conditions: Acrylodan conjugate; S > 1, selective for glucose

Going from B2 to B4, the “S, selectivity = trueKd(galactose)/trueKd(glucose)” value rises from 0.28 to 0.29.

First: B5
Second: B6
The “S, selectivity = trueKd(galactose)/trueKd(glucose)” value of the first is lower: 0.43 for the first, 0.91 for the second.

Same assay, conditions: Badan conjugate; S > 1, selective for glucose

First: B2
Second: B4
The “S, selectivity = trueKd(galactose)/trueKd(glucose)” value of the first is lower: 0.48 for the first, 2.2 for the second.

Compared with B9, B6 is lower in “S, selectivity = trueKd(galactose)/trueKd(glucose)” value: 16 for the first, 0.64 for the second.

In the case of B10, the “S, selectivity = trueKd(galactose)/trueKd(glucose)” value is reported as 1.

Same assay, conditions: Badan conjugate; monochromatic titration curves; room temperature

With B7 the “Galactose trueKd” value was “nb^c”.
For B1, the “Galactose trueKd” value was “nb^e”.

Same assay, conditions: read-out: Galactose trueKd; Acrylodan conjugate; monochromatic titration curves; room temperature

Going from B2 to B3, the Kd falls from 5 mM to 0.53 mM (9.4-fold). The second binds more tightly here.

Going from B4 to B5, the Kd falls from 14 mM to 0.26 mM (54-fold).

B6 showed a Kd of 0.3 mM.

Same assay, conditions: read-out: Galactose trueKd; Badan conjugate; monochromatic titration curves; room temperature

Going from B2 to B11, the Kd rises from 5.2 mM to 29 mM (5.6-fold).

Compared with B3, B4 is 5.6-fold higher in Kd: 2.5 mM for the first, 14 mM for the second. The first binds more tightly here.

First: B9
Second: B6
The Kd of the first is 22-fold higher: 14 mM for the first, 0.64 mM for the second. The second binds more tightly here.

B10 gave a Kd of 3.6 mM.

Test: Thermostability: mid-point thermal denaturation temperature (Tm) from temperature-dependent fluorescence (Roche LightCycler)
Assay type: physicochemical
Conditions: Acrylodan conjugate; apo-protein
Outline: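 Unfolding tracked by SYPRO binding to denatured protein, fluorescence at 488 nm/510 nm recorded on a LightCycler as temperature rose in 1 K steps. Tm taken as denaturation mid-point, for protein in solution or immobilized on Ni-NTA or NHS-agarose beads.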

B5 and B6 are the same in apoTm: 348 K for the first, 348 K for the second.

Same assay, conditions: Badan conjugate; apo-protein

Going from B2 to B11, the apoTm falls from 350 K to 344 K.

First: B3
Second: B4
The apoTm of the first is lower: 346 K for the first, 347 K for the second.

Compared with B7, B8 is lower in apoTm: 344 K for the first, 343 K for the second.

Going from B9 to B6, the apoTm rises from 346 K to 347 K.

First: B1
Second: B10
The apoTm of the first is lower: 344 K for the first, 346 K for the second.

Test: Glucose-dependent fluorescence emission intensity spectra of conjugates (Nanodrop3300)
Assay type: biochemical
Conditions: Acrylodan conjugate of ttGGBP.17C mutant; Nanodrop3300
Excerpt: Semi-synthetic FRSs were engineered by site-specifically attaching thiol-reactive, environmentally sensitive fluorophores that respond to ligand-mediated conformational changes. Identification of FRS candidates that are useful for sensing applications comprises three steps: • 1. Cysteine scan. Mutant glucose-binding proteins containing single cysteines are constructed for site-specific attachment of thiol-reactive fluorophores. […] Candidate positions fall into three classes: endosteric, replacing a residue that contacts the ligand directly; peristeric, located at the rim of the binding site; allosteric (Marvin et al. 1997 Proc Natl Acad Sci USA, 94, 4366-71; Marvin 1998 J Am Chem Soc, 120, 7-11), located outside the binding site at sites that undergo local structural changes in concert with the hinge-bending motion. • 2. Fluorophore screening. Thiol-reactive, environmentally sensitive fluorophores are attached to each cysteine mutant prepared in step 1. • 3. Evaluation of the glucose-mediated change of all the fluorescent conjugates prepared in step 2. Responses to ligand binding in which there is both a change in fluorescence emission intensity and spectral shape was essential for chemometric applications, because such changes enable ratiometric measurements. Changes in spectral shape typically are accompanied by a shift in the wavelength of the emission intensity maxima. Three classes of fluorescent responses are possible: • i. No response. • ii. Monochromatic response (emission intensity increases or decreases without a change in spectral shape) • iii.

With B2 the “Type of fluorescence response to glucose” value was “d (d, intensity decrease only)”.
For B3, the “Type of fluorescence response to glucose” value was “d (d, intensity decrease only)”.
In the case of B4, the “Type of fluorescence response to glucose” value is reported as “r(h) (r(h), ratiometric (hypsochromic shift))”.
For B7, the “Type of fluorescence response to glucose” value was “i (i, intensity increase only)”.
In the case of B5, the “Type of fluorescence response to glucose” value is reported as “r(h) (r(h), ratiometric (hypsochromic shift))”.
In the case of B9, the “Type of fluorescence response to glucose” value is reported as “i (i, intensity increase only)”.
In the case of B6, the “Type of fluorescence response to glucose” value is reported as “d (d, intensity decrease only)”.
In the case of B1, the “Type of fluorescence response to glucose” value is reported as “d (d, intensity decrease only)”.

Same assay, conditions: Badan conjugate of ttGGBP.17C mutant; Nanodrop3300

For B2, the “Type of fluorescence response to glucose” value was “r(h) (r(h), ratiometric (hypsochromic shift))”.
In the case of B11, the “Type of fluorescence response to glucose” value is reported as “i (i, intensity increase only)”.
With B3 the “Type of fluorescence response to glucose” value was “r(h) (r(h), ratiometric (hypsochromic shift))”.
In the case of B4, the “Type of fluorescence response to glucose” value is reported as “r(h) (r(h), ratiometric (hypsochromic shift))”.
For B7, the “Type of fluorescence response to glucose” value was “i (i, intensity increase only)”.
In the case of B8, the “Type of fluorescence response to glucose” value is reported as “i (i, intensity increase only)”.
For B9, the “Type of fluorescence response to glucose” value was “r(h) (r(h), ratiometric (hypsochromic shift))”.
For B6, the “Type of fluorescence response to glucose” value was “d (d, intensity decrease only)”.
With B10 the “Type of fluorescence response to glucose” value was “r(h) (r(h), ratiometric (hypsochromic shift))”.

Source: patent US11156615B2 (priority 2015, dated 2021)
